Experimental data as given in patent US10202593B2, “Evolved sortases and uses thereof” (President and Fellows of Harvard College, priority 2013, dated 2019).

T1: fetuin A in human plasma (Homo sapiens, UniProt P02765)
T1 construct: site-specific modification of endogenous fetuin A in human plasma; tissue VWR 89347-902; host or cells: normal human plasma
T1 sequence (P02765 19-367): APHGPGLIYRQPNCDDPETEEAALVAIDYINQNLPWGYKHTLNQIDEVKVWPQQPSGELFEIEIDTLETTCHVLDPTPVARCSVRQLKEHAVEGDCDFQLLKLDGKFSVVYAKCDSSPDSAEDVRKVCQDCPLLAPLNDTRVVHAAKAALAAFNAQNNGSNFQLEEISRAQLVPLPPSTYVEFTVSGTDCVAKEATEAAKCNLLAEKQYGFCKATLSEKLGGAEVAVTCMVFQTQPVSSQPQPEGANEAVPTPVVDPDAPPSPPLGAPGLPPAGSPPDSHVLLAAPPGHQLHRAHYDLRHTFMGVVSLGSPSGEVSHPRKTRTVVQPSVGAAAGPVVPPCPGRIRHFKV


What was measured:
[1] = Differential scanning fluorimetry for thermal melting curves; type: physicochemical
Procedure: FIGS. 25A-C show thermal melting curves for eSrtA variants. Each protein was freshly expressed and purified, then diluted to 40 μM in 100 mM Tris pH 7.5, 500 mM NaCl. Differential scanning fluorimetry was performed using the Life Technologies Protein Thermal Shift™ Dye kit according to manufacturers' instructions. Thermal scanning was performed on Biorad CFX96-Real Time PCR (25° C. to 99° C., 0.2° C./2s increments). To calculate Tm, fluorescence intensity was fit to the Boltzmann equation using Microsoft Excel using the Solver add-in. Melting curves were plotted with best-fit fluorescence intensities that were normalized to maximum fluorescence intensity. Tm values are shown with their standard deviations as determined from three technical replicates.
To determine thermal stability of eSrtA, eSrtA(2A-9), eSrtA(4S-9), and variants thereof, each protein was freshly expressed and purified, then diluted to 40 μM in 100 mM Tris pH 7.5, 500 mM NaCl. Differential scanning fluorimetry was performed using the Life Technologies Protein Thermal Shift™ Dye kit according to manufacturers' instructions. […] To calculate Tm, fluorescence intensity was fit to the Boltzmann equation using Microsoft Excel using the Solver add-in. Melting curves were plotted with best-fit fluorescence intensities that were normalized to maximum fluorescence intensity.

fetuin A in human plasma = target: T1, fetuin A in human plasma; assay: Plasma labeling of fetuin A with GGGK(biotin); type: biochemical; conditions: for overall conjugation efficiency in human plasma (fetuin A, densitometry): 2 hours, room temperature
Procedure: FIG. 21A-D show applications of evolved sortases. (A) N- and C-terminal labeling of fibroblast growth factors FGF1 and FGF2. Tandem SUMO-TEV cleavage site-FGF1/2-LPESG-His6 (SEQ ID NO: 27) constructs were treated with eSrtA(4S-9) in the presence of GGG-PEG, then with eSrtA(2A-9) and TEV protease in the presence of Alexa Fluor750-LAETGG (SEQ ID NO: 35) and purified to afford the final conjugates in up to 20% yield (Table 3). The crude reactions were analyzed by SDS-PAGE and scanned for fluorescence at 700 nm. (B) Surface functionalization using eSrtA(2A-9) and eSrtA(4S-9). 96-well plates coated with GGG-PEG (5 kDa) were incubated with enzyme and Alexa Flur 488-LAETG (SEQ ID NO: 5; green) or Alexa Fluor 647-LPESG (SEQ ID NO: 3; red) for 2 hours, then washed three times. The total fluorescence of the resulting surfaces was measured at 488 nm or 647 nm, then normalized to the fluorescent intensities obtained from the samples containing eSrtA(2A-9)+488-LAETG (SEQ ID NO: 5) or eSrt(4S-9)+647-LPESG (SEQ ID NO: 3). (C, D) Treatment of human plasma with evolved SrtA variants for 2 hours at room temperature in the presence of GGGK(biotin) (SEQ ID NO: 22) with or without 10 mM CaCl2. […] Biotin capture and mass spectrometry identified this protein as fetuin A, confirmed by subsequent Western blot (D).
Normal human plasma was purchased from VWR (part number 89347-902) and stored at −20° C. For all reactions, an aliquot was thawed at 37° C. for 15 minutes, then vortexed to resuspend any coagulated material. To this sample was added 2 μL of 0.1 M GGGK(biotin) (SEQ ID NO: 22) for analytical reactions. Higher concentrations of GGGK(biotin) (SEQ ID NO: 22) were avoided for analytical purposes, as they caused increased background in downstream Western blotting. 10 μL of 1 M CaCl2 was added in cases of calcium supplementation. Reactions were initiated by the addition of 10 μL of 100 μM eSrtA, eSrtA(2A-9), or eSrtA(4S-9) and incubated at room temperature for 2 hours. Reactions were quenched by 10:1 dilution into SDS-PAGE loading buffer, followed by a 10 minute incubation at 95° C. These samples were then run on 4-12% Bis-Tris PAGE gels, blotted to PVDF membrane using the iBlot2 dry blotting system, blocked with Pierce Superblock buffer for 1 hour followed by incubation with 1:500 dilutions of Abcam α-Fetuin A antibody (MM0273-6M23) in Superblock buffer with 0.1% Tween-20 for 1 hour. The blot was then washed 3 times with PBS+0.1% Tween-20, then incubated again in 1:15,000 LiCor goat antimouse 680+1:15,000 Licor Streptavidin-800 in Superblock buffer with 0.1% Tween and 0.01% SDS added for 45 minutes. The blot was then washed 3 times with PBS+0.1% Tween and visualized on an Odyssey IR imager.
As in analytical labeling of Fetuin A, 1 mL of normal human plasma was combined with 10 μL 1M CaCl2, 10 μL of 0.1M GGGK(Biotin) (SEQ ID NO: 22), and 10 μL of 100 μM eSrtA(4S-9), then incubated at room temperature for 2 hours. 100 μL of pre-equilibrated Ni-NTA resin slurry and 12.5 μL 0.4M H2N-LPESGG (SEQ ID NO: 38) peptide was added to the mixture to act as a competitive inhibitor for thioester formation. The mixture was incubated at room temperature with shaking for 15 minutes, then filtered through a 0.2 μm spin filter before dilution to 10 mL final volume in PBS+1 mM EDTA+100 μM H2N-LPESGG (SEQ ID NO: 38) (PBS-EL). The solution was concentrated using a 10 kDa molecular weight cutoff spin concentrator for 20 minutes at 3500×g and a final volume of <1 mL. […]

[2] = presence of supplemental calcium (10 mM CaCl2)

| Molecule | ΔTm compared to eSrtA [1] | fetuin A conjugation efficiency lower than that of eSrtA(4S-9) (fetuin A in human plasma; 10 mM added CaCl2) | overall conjugation efficiency in human plasma (fetuin A, densitometry) (fetuin A in human plasma; [2]) | processing of fetuin A (fetuin A in human plasma; without supplemental calcium) | overall conjugation efficiency in human plasma (fetuin A, densitometry) (fetuin A in human plasma; absence of supplemental calcium) |
| --- | --- | --- | --- | --- | --- |
| eSrtA(2A-9): P94R, S102C, A104H, E105D, K138P, K152I, N160K, K162H, T164N, D165A, K173E, I182V, K190E, T196S (protein) QAKPQIPKDKSKVAGYIEIPDADIKEPVYPGPATREQLNRGVCFHDENESLDDQNISIAGHTFIDRPNYQFTNLKAAKPGSMVYFKVGNETRIYKMTSIRKVHPNAVEVLDEQEGKDKQLTLVTCDDYNEETGVWESRKIFVATEVK | ~4.4 °C |  |  |  |  |
| eSrtA (protein) QAKPQIPKDKSKVAGYIEIPDADIKEPVYPGPATREQLNRGVSFAEENESLDDQNISIAGHTFIDRPNYQFTNLKAAKKGSMVYFKVGNETRKYKMTSIRNVKPTAVEVLDEQKGKDKQLTLITCDDYNEETGVWETRKIFVATEVK |  | 90 fold | 0.6% | no processing |  |
| eSrtA(4S-9): P94R, N98D, S102C, A104V, A118T, F122A, K134R, F144L, D160N, D165A, I182V, E189F, K190E, K196T (protein) QAKPQIPKDKSKVAGYIEIPDADIKEPVYPGPATREQLDRGVCFVEENESLDDQNISITGHTAIDRPNYQFTNLRAAKKGSMVYLKVGNETRKYKMTSIRNVKPTAVEVLDEQKGKDKQLTLVTCDDYNFETGVWETRKIFVATEVK | ~4.4 °C |  | 57.6% |  | 1.8% |
